Experimental data as given in the nanobody polyreactivity screen of Harvey et al. (2022).

Assay: yeast display, Sf9 membrane polyspecificity reagent, FACS + sequencing; frameworks hold sequencing errors
How it was run: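 Galactose-induced (36–48 hours) yeast carrying a synthetic nanobody display library were exposed to 10% biotinylated, detergent-solubilized Sf9 membrane reagent at 4 °C for 1 hour. FACS followed streptavidin microbead enrichment, using low and high (top ~1%) gates for expression (anti-HA) and reagent binding (streptavidin). Colony PCR, MiSeq 2 × 250 sequencing and CDR-length filtering followed. Labels for polyreactivity reflect the gate of origin.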

Row | Sequence | polyreactivity (PSR sort gate)
1 | QVQLVESGGGLVQAGGSLRLSCAASGSTFAVNAMGWYRQAPGKERELVAVITSSGGRTYADSVKGRFTISRDNAKNTVYLQMNSLKPEDTAVYYCAAVQGKVRGGYYWGQGTQVTVSS | high polyreactivity
2 | QVQLVESGGGLVQAGGSLRLSCAASGSTFAVYAMGWYRQAPGKERELVAAITRSGGDTYYADSVKGRFTISRDNAKNTVYLQMNSLKPEDTAVYYCAAAPRYGEEYWGQGTQVTVSS | low polyreactivity
3 | QVQLVESGGGLVQAGGSLRLSCAASGSTFAVYAMGWYRQAPGKERELVAAITWSGGSTYYADSVKGRFTISRDNAKNTVYLQMNSLKPEDTAVYYCAATLIYHYWQLFIISTMGYWGQGTQVTVSS | low polyreactivity
4 | QVQLVESGGGLVQAGGSLRLSCAASGSTFAWYAMGWYRQAPGKERELVAAISRTGRTYYADSVKGRFTISRDNAKNSVYLQMNSLKPEDTAVYYCAAKSIYDGFPYYLFDYWGQGTQVTVSS | high polyreactivity
5 | QVQLVESGGGLVQAGGSLRLSCAASGSTFAYNAMGWYRQAPGKERELVAAISFSGGSTYYADSVKGRFTLSRDNAKNTVYLQMNSLKQEDTAVYYCAKRGYPSTNGRQEGYWGQGTQVTVSS | low polyreactivity
6 | QVQLVESGGGLVQAGGSLRLSCAASGSTFAYNAMGWYRQAPGKERELVAAISYGGDDTYYADSVKGRFTISRDNAKNTVYLQMNSLKPEDTAVYYCNARSRTYRSALGNLYHYDYWGQGTQVTVSS | high polyreactivity
7 | QVQLVESGGGLVQAGGSLRLSCAASGSTFAYNDMGWYRQAPGKERELVADIRSGGNTNYADSVKGRFTISRDNAKNTVYLQMNSLKPEDTAVYYCATDGYRIDVYHPDYRYDYWGQCTQVTVSS | low polyreactivity
8 | QVQLVESGGGLVQAGGSLRLSCAASGSTFAYNDMGWYRQAPGKETELVADIRSGGNTNYADSVKGRFTISRDNAKNTVYLQMNSLKPEDTAVYYCATDGYRFDVYHPDYRYDYWGQGTQVTVSS | low polyreactivity
9 | QVQLVESGGGLVQAGGSLRLSCAASGSTFAYNTMGWYRQAPGKERELVAAISQRGGSTYADTVKGRFTISRDNAKNTVYLQMNSLKPEENAVYYWAADGYTYKFDYWGQGTQVTVSS | low polyreactivity
10 | QVQLVESGGGLVQAGGSLRLSCAASGSTFAYYAMGRYRQAPGKERELVAAISTIAGRTYYADSVKGRFTISRDTAKNSVSLQMNSLNPEDTAFYYCNAYWWFFGGYDYWGQGTQVTVSS | high polyreactivity
11 | QVQLVESGGGLVQAGGSLRLSCAASGSTFAYYAMGWYRKAPGKERELVAAISSGGSTYYADSVKGRFTISRDNAKNTVYLQMNSLKPEDTAVYYCNKLWVGKFKRYEFGYWGQGTQVTVSS | low polyreactivity
12 | QVQLVESGGGLVQAGGSLRLSCAASGSTFAYYAMGWYRQAPGKEREFVAAISTRGGSTYYADSVKGRFTISRDNAKNTLYLQMNSLKPEDTAVYYCAAGYFNYSWRIRFDYWGQGTQVTVSS | high polyreactivity
13 | QVQLVESGGGLVQAGGSLRLSCAASGSTFAYYAMGWYRQAPGKERELVAAINYRATRTYYADSVKGRFTISRDNAKNTVYLQMNSLKPEDTAVYYCAAVSPNTAYDYWGQGTQVTVSS | high polyreactivity
14 | QVQLVESGGGLVQAGGSLRLSCAASGSTFAYYAMGWYRQAPGKERELVAAISWRGGSTYYADSVKGRFTISRDNAKNTVYLHMNSLKPEDTAVYYCATLSAWKASSYDYWGQGTQVTVSS | high polyreactivity
15 | QVQLVESGGGLVQAGGSLRLSCAASGSTFAYYAMGWYRQAPGKERELVAAISWSGGSTYYADSVKGRFTISRDNAKNTVYLQMNSLKPEDTAVYYCNKRNVLDYDYWGQGTQVTVSS | low polyreactivity
16 | QVQLVESGGGLVQAGGSLRLSCAASGSTFAYYAMGWYRQAPGKESELVAAISSGGSTYYADSVKGRFTISRDNAKNTVYLEMFCLKGDDTAVYYCNKLWVGKFKRYEFGYWGQGTQVTVSS | low polyreactivity
17 | QVQLVESGGGLVQAGGSLRLSCAASGSTFAYYSMGWYRQAPGKERELVAAISRTGGSTYYADSVKGRFTISRDNAKNTVYLQMNSLKPEDTAVYYCNARAPVGTFDYDYWGQGTQVTVSS | low polyreactivity
18 | QVQLVESGGGLVQAGGSLRLSCAASGSTFAYYTMGWYRQAPGKERELVAAISASGGSTYYADSVKGRFTISRDFAKNTVYFQMNSLKPEDTAVYYCNAESYLTGWWVDYWGQGTQVTVSS | low polyreactivity
19 | QVQLVESGGGLVQAGGSLRLSCAASGSTFAYYTMGWYRQAPGKERELVAAITSAGRTSYADSVKGRFTISRDNAKNTVYLQMKSLKPDDTAVYYCAKGRKPGYYYWGQGTQVTVSS | high polyreactivity
20 | QVQLVESGGGLVQAGGSLRLSCAASGSTFCFNDMGWYIQAPGKEREFVAAISSIGGSTYYADSVKGRFKISRDNAKNTLYLQMNSLKPEDTAVYYCAVEVVRVYRYDYWGQGTQVTVSS | low polyreactivity
21 | QVQLVESGGGLVQAGGSLRLSCAASGSTFCHYAMGWYRQAPGKERELVAAISWSGGSTSYADSVKGRFTISRDNAKNTVFLQMNSLIPEDTAVYYCNKRQEWFHFPYTRGYYWGQGTQVSVSS | low polyreactivity
22 | QVQLVESGGGLVQAGGSLRLSCAASGSTFCRNAMGWYRQAPGKEREFVAVISISSGTTYADSVKGRFTISRDNAKNTVYLQMNSMKPEDTAVYYCAAAIGVYYIDYRYLGTVEYWGQGTQGTVSS | low polyreactivity

Row | Sequence | polyreactivity (PSR sort gate)
23 | QVQLVESGGGLVQAGGSLRLSCAASGSTFCSYVMGWYRQAPGKERELVAAISSIGGSTYYADSVKGRFTISRDNAKNTVYLQMNSLKPEDTAVYYCAAEPPGSPYEGGYWGQGTQVTVSS | low polyreactivity
24 | QVQLVESGGGLVQAGGSLRLSCAASGSTFCYYAMGWYRQAPGKERELLAAITRSGGRTYYADSVKGRFTISRDNAKNTVYLQMNSLKPEDTAGYYCAADSRVGFGRLYGYWGQGTQVTVSS | high polyreactivity
25 | QVQLVESGGGLVQAGGSLRLSCAASGSTFDENAMGWYRQAPGKERELVAVISDSGGSTYYADSVKGRFTISRDYAKNTVYFQMNSLKPEDTAVYYCAKDVPPEYPTSSYDYWGQGSQVTVSS | low polyreactivity
26 | QVQLVESGGGLVQAGGSLRLSCAASGSTFDFNAMGWSRQAPGKERELVAAITYSGGSTYYADSVKGRFTISRDNAKNTVYLKMNSLKPEDTAVYYCAAEDVYPGSIDMDYWGQGTQVTVSS | low polyreactivity
27 | QVQLVESGGGLVQAGGSLRLSCAASGSTFDFYAMGLYRQAPGKERELVAAITSGGTTNYADSVKGRFTISRDNAKNTVYLQMNSLKPEDTAVYFCNAYYLGWYRVRAVTGYDYCGQGTQVTVSS | low polyreactivity
28 | QVQLVESGGGLVQAGGSLRLSCAASGSTFDFYAMGWYRQAPGKERELVAAISWSAGSTYYADSVKGRFTISRDIAKNTVYLQMNSLKPEDTAVYYCNADYWGQGTQVTVSS | low polyreactivity
29 | QVQLVESGGGLVQAGGSLRLSCAASGSTFDGNAMGWYRQAPGKERELVAAITWRDGSTSYADSVKGRFTISRDNAKNTVYLQMNSLKPEDTAVYYCAADYEVYQVASAFDYWGQGTQVTVSS | low polyreactivity
30 | QVQLVESGGGLVQAGGSLRLSCAASGSTFDGYAMGWYRQAPGKERELVAAISRSGGRTYYADSVKGRFTISRDNAKNTVYLQMNSLKPEDTAVYYCAALYPYKREDYWGQGTQVTVSS | high polyreactivity
31 | QVQLVESGGGLVQAGGSLRLSCAASGSTFDGYAMGWYRQAPGKERELVAAISSSGAYTYYADSVKGRFTISRDIAKNTVFLQMNSLKPEDTAVYYCNRVTYQQKNDYCGQGTQVTVSS | high polyreactivity
32 | QVQLVESGGGLVQAGGSLRLSCAASGSTFDGYTMGWYRQAPGKERELVAGISWSGTSTYYADSVKGRFTISRDNAKNTVYLQMNSLKPEDTAVYYCAADRYWFRLYTAGVTHRFGYWGQGTQVTVSS | low polyreactivity
33 | QVQLVESGGGLVQAGGSLRLSCAASGSTFDINTMGWYRQAPGKEREFVAAITDSDDSTYYADSVKGRFTISRDNAKNTVYLQMNSLKPEDTAVYYCAHDYDGYVWDTEYDYWGQGTQVTVSS | low polyreactivity
34 | QVQLVESGGGLVQAGGSLRLSCAASGSTFDINTMGWYRQAPGKEREFVAAITDSDDSTYYADSVKGRFTISRDNAKNTVYLQMNSLKPEDTAVYYCNYDYWGQGTQVTVSS | low polyreactivity
35 | QVQLVESGGGLVQAGGSLRLSCAASGSTFDKYPLGWYRQAPGKERELVAAITWGGGSTYYADSVKGRFTISRDNAKNTVYLQMNSLKPEDTAVYYCAAEQGSSVLYDSWGQGTQVTVSS | low polyreactivity
36 | QVQLVESGGGLVQAGGSLRLSCAASGSTFDKYTMGWYRQAPGKERELVATISRSGTSTNYADSVKGRFTISRDNAKNTVYLQLNSLKPEDTAVYYCAAVMRWRDLFSEYYYWGQGTQVTVSS | high polyreactivity
37 | QVQLVESGGGLVQAGGSLRLSCAASGSTFDLNAMGWYRQAPGKERELVARISSVGSTNYADSVKGRFTISRDNAKNTVYLQMNSLKPEDTAVYYCNAGFWDLYDYWGQGTQVTVSS | low polyreactivity
38 | QVQLVESGGGLVQAGGSLRLSCAASGSTFDLNAMGWYRQAPGKERELVARITSSTGRTFYADSVKGRFTISRDNAKNTVYLQMNSLKPEDTAVYYCNTVGHGYSPPVNRSKMDYWGQGTQVTVSS | low polyreactivity
39 | QVQLVESGGGLVQAGGSLRLSCAASGSTFDNYAMGWYRQAPGKERELVAVITQSGGITFYADSVKGRFTISRDNAKNTVYLQMNSLKPEDTAVYYCNVELDRSWYYYWGQGTQVTVSS | low polyreactivity
40 | QVQLVESGGGLVQAGGSLRLSCAASGSTFDPNAMGWYRQAPAKERELVAAISYTGGRTYYADSVKGRFTISRDNAKNTVYLQMNSLKPEDTAVYYCAVLVVGSTTQDEPYFSGVEHDYWGQGTQVTVSS | low polyreactivity
41 | QVQLVESGGGLVQAGGSLRLSCAASGSTFDPNVMGWYRQAPGKERELVAAITWSGGSTSYADSVKGRFTISRDNAKNTVYLQMNSLKPEDTAVYYCAADWHSWRWGYYYWGQGTQVTVSS | low polyreactivity
42 | QVQLVESGGGLVQAGGSLRLSCAASGSTFDPNVMGWYRQAPGNERELVADITTTGVSTYYADSVKGRFTISRDNAKNTVYLQMNSLKPEDTAVYYCNAKLYWYLTRDAYRYRYTYDYWGQGTQVTVSS | low polyreactivity
43 | QVQLVESGGGLVQAGGSLRLSCAASGSTFDQYAMGWYRQAPGKERELVAAISWSGGRTSYAVSVKGRFTISRDTAKNTVYLQMNSLKPEDTAVYYCAADLWFWGFHYPSRMDYWGQGTQVTVSS | high polyreactivity
